Experimental data: US20180169199A1

target: HLA-A*02:01 molecule (product of HLA-A*02:01 gene) (human); test: flow cytometry, T2 cells + β2m, peptide dilution series, BB7.2 staining

| Binder | Binding Experiment Data (log Kd) |
| --- | --- |
| MVLTKMKEI (modifications not checked) [peptide … (SEQ ID NO: 6)] | -4.59 |
| ITRARFEEL (modifications not checked) [peptide … (SEQ ID NO: 10)] | -4.33 |
| AMTKDNNLL (modifications not checked) [peptide … (SEQ ID NO: 9)] | -5.56 |
| NLLGRFELS (modifications not checked) [peptide … (SEQ ID NO: 11)] | -4.56 |
| LLLDVAPLS (modifications not checked) [peptide … (SEQ ID NO: 8)] | -6.06 |
| YGAAVQAAI (modifications not checked) [peptide … (SEQ ID NO: 7)] | -4.9 |
| KLLQDFFNG (modifications not checked) [peptide … (SEQ ID NO: 4)] | -4.96 |
| VLVGGSTRI (modifications not checked) [peptide … (SEQ ID NO: 5)] | -4.86 |

Second part, the binder after the results:

| Binding Experiment Data (log Kd) | Binder |
| --- | --- |
| -5.09 | YAFNMKSAV (modifications not checked) [peptide … (SEQ ID NO: 13)] |
| -6.15 | AQIHDLVLV (modifications not checked) [peptide … (SEQ ID NO: 12)] |
| -4.76 | SVTNAVITV (modifications not checked) [peptide … (SEQ ID NO: 15)] |
| -5.91 | NQPGVLIQV (modifications not checked) [peptide … (SEQ ID NO: 14)] |

target: HLA-A*02:06 molecule (product of HLA-A*02:06 gene) (human); test: flow cytometry, RA2.6 cells, peptide dilution series, BB7.2 staining

| Binder | Binding Experiment Data (log Kd) |
| --- | --- |
| MVLTKMKEI (modifications not checked) [peptide … (SEQ ID NO: 6)] | -5.53 |
| ITRARFEEL (modifications not checked) [peptide … (SEQ ID NO: 10)] | -5.58 |
| AMTKDNNLL (modifications not checked) [peptide … (SEQ ID NO: 9)] | -4.28 |
| NLLGRFELS (modifications not checked) [peptide … (SEQ ID NO: 11)] | -5.18 |
| LLLDVAPLS (modifications not checked) [peptide … (SEQ ID NO: 8)] | -6.17 |
| YGAAVQAAI (modifications not checked) [peptide … (SEQ ID NO: 7)] | -5.37 |
| KLLQDFFNG (modifications not checked) [peptide … (SEQ ID NO: 4)] | -5.27 |
| VLVGGSTRI (modifications not checked) [peptide … (SEQ ID NO: 5)] | -5.07 |

The remaining lines, values ahead:

| Binding Experiment Data (log Kd) | Binder |
| --- | --- |
| -5.02 | YAFNMKSAV (modifications not checked) [peptide … (SEQ ID NO: 13)] |
| -6.45 | AQIHDLVLV (modifications not checked) [peptide … (SEQ ID NO: 12)] |
| -5.59 | SVTNAVITV (modifications not checked) [peptide … (SEQ ID NO: 15)] |
| -6.42 | NQPGVLIQV (modifications not checked) [peptide … (SEQ ID NO: 14)] |

target: HLA-A*24:02 molecule (product of HLA-A*24:02 gene) (human); test: flow cytometry, acid-stripped C1R-A24 cells + β2m, peptide dilution series, 17A12 staining

| Binding Experiment Data (log Kd) | Binder |
| --- | --- |
| -5.82 | MVLTKMKEI (modifications not checked) [peptide … (SEQ ID NO: 6)] |
| -5.21 | ITRARFEEL (modifications not checked) [peptide … (SEQ ID NO: 10)] |
| -7.66 | FYPEEISSM (modifications not checked) [peptide … (SEQ ID NO: 3)] |
| -5.49 | AMTKDNNLL (modifications not checked) [peptide … (SEQ ID NO: 9)] |
| -6.24 | TFDVSILTI (modifications not checked) [peptide … (SEQ ID NO: 2)] |
| -4.37 | SVTNAVITV (modifications not checked) [peptide … (SEQ ID NO: 15)] |
| -5.5 | YGAAVQAAI (modifications not checked) [peptide … (SEQ ID NO: 7)] |
| -6.17 | VLVGGSTRI (modifications not checked) [peptide … (SEQ ID NO: 5)] |
